# Reference: patent publication US20190177408A1 (SUZHOU CONNECT BIOPHARMACEUTICALS, published 2019)
# Numbering of substitutions follows the chain as printed.
# T1: IL-4Rα on TF-1 cells (human, UniProt P24394 26-825)
# T1 sequence (looked up): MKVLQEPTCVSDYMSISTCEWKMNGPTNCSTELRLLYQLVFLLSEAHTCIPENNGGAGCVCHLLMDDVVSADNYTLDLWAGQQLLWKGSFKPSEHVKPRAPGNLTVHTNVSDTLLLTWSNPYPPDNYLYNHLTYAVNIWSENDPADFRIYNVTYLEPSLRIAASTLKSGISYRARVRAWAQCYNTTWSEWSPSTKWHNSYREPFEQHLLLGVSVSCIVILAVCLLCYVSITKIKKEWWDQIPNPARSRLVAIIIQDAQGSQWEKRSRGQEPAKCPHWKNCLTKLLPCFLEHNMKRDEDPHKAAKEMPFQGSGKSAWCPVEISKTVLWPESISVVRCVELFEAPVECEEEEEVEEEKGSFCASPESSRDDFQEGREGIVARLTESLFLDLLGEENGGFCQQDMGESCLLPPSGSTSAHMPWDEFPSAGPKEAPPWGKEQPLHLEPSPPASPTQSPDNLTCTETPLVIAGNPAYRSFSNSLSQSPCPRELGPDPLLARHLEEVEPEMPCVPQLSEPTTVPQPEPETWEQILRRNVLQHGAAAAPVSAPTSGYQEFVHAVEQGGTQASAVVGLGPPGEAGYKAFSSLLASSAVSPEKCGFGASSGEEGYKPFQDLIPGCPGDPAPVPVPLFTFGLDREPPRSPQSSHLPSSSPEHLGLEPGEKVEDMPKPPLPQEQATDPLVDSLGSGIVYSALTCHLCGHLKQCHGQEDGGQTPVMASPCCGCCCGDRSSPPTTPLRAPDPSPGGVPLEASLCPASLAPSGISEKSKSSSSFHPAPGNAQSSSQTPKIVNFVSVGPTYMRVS
# T2: human soluble IL-4Rα (sIL-4Rα) (human, UniProt P24394 26-232)
# T2 construct: Bought reagent (PEPRO TECH, Catalog Number 200-04R); also called shIL-4Rα; soluble hIL-4 Rα
# T2 sequence: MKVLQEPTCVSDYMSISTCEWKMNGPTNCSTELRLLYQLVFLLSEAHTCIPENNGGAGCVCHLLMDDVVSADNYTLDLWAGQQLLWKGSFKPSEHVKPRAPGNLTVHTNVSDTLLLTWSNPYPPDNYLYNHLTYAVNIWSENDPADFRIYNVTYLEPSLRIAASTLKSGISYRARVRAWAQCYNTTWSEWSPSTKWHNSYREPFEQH
# B1: L1021H1031 (antibody, V domains shown)
# VH: EVQLVESGGGLVQPGGSLRLSCAASGFTFSRNAMFWVRQAPGKGLEWVSGIGTGGATSYADSVKGRFTISRDNAKNSLYLQMNSLRAEDTAVYYCARGRYYFDYWGQGTLVTVSS
# VL: EIVLTQSPGTLSLSPGERATLSCRASQSVSSSYLAWYQQKPGQAPRLLIFGASSRAPGIPDRFSGSGSGTDFTLTISRLEPEDFAVYYCQQYDHSAGWTFGQGTKVEIK
# notes: human kappa
# B2: L1021H1020 (antibody, V domains shown)
# VH: B1 VH with E6Q, Q13H, A24G, T90M, D103P, Y104W
# VL: B1 VL
# notes: human kappa
# B3: L1021H1016 (antibody, V domains shown)
# VH: B1 VH with E6Q, Q13H, A24G, S58N, T90M, D103P, Y104W
# VL: B1 VL
# notes: human kappa
# B4: L1001H1000 (antibody, V domains shown)
# VH: B1 VH with E6Q, Q13H, A24G, S58N, T90M
# VL: B1 VL with S31N, F50Y
# notes: human kappa
# B5: L1024H1000 (antibody, V domains shown)
# VH: B1 VH with E6Q, Q13H, A24G, S58N, T90M
# VL: B1 VL with S31N
# notes: human kappa
# B6: L1022H1000 (antibody, V domains shown)
# VH: B1 VH with E6Q, Q13H, A24G, S58N, T90M
# VL: B1 VL with S31N, F50Y, P57T
# notes: human kappa
# B7: L1021H1027 (antibody, V domains shown)
# VH: B1 VH with Q13H, D103P, Y104W
# VL: B1 VL
# notes: human kappa
# B8: L1021H1029 (antibody, V domains shown)
# VH: B1 VH with T90M, D103P, Y104W
# VL: B1 VL
# notes: human kappa
# B9: L1021H1000 (antibody, V domains shown)
# VH: B1 VH with E6Q, Q13H, A24G, S58N, T90M
# VL: B1 VL
# notes: human kappa
# B10: L1024H1007 (antibody, V domains shown)
# VH: B1 VH with E6Q, Q13H, A24G, T90M
# VL: B1 VL with S31N
# notes: human kappa
# B11: L1021H1007 (antibody, V domains shown)
# VH: B1 VH with E6Q, Q13H, A24G, T90M
# VL: B1 VL
# notes: human kappa
# B12: L1024H1031 (antibody, V domains shown)
# VH: B1 VH
# VL: B1 VL with S31N
# notes: human kappa
# B13: L1019H1000 (antibody, V domains shown)
# VH: B1 VH with E6Q, Q13H, A24G, S58N, T90M
# VL: B1 VL with S31N, P57T
# notes: human kappa
# B14: L1023H1000 (antibody, V domains shown)
# VH: B1 VH with E6Q, Q13H, A24G, S58N, T90M
# VL: B1 VL with F50Y
# Target: T1, IL-4Rα on TF-1 cells
# Experiment: cell-based or functional assay
IC50 (ng/ml) (Inhibition on the proliferation of IL-4) [ng/mL],IC50 (ng/ml) (Inhibition on the proliferation of IL-13) [ng/mL],Binder
34.3,76.5,B1
15.4,28.6,B2
28.5,69.7,B3

# Target: T2, human soluble IL-4Rα (sIL-4Rα)
# Experiment: ELISA, coated sIL-4Rα, culture supernatant
# Method: 100 μl of 100 μg/ml sIL-4Rα solution was added to 9.90 ml of PBS, mixed up and down, and then an antigen coating buffer of 1.0 μg/ml was obtained. The prepared antigen coating buffer was added to a 96-well ELISA plate (Corning) with a volume of 100 μl per well. The 96-well ELISA plate was incubated overnight in a refrigerator at 4° C. On the next day; the solution therein was discarded; and PBS containing 2% BSA was added to the 96-well ELISA plate row by row with a volume of 300 μl per well. The 96-well ELISA plate was incubated for 2 hours in a refrigerator at 4° C., Then the PBS containing 2% BSA was discarded and the plate was washed 3 times with PBST. Diluted antibodies to be tested were sequentially added to the corresponding wells, while the normal cell culture supernatants, as negative control samples, were added too. Three duplicate wells were made for each sample with a volume of 100 μl per well. The ELISA plate was wrapped with preservative film (or covered) and incubated for 1 h at […] in a constant temperature incubator. Subsequently, the 96-well ELISA plate was taken out, and the solution therein was discarded. After washing with PBST for 3 times, TMB solution (Solarbio, Catalog Number: PR1200) was added to the 96-well ELISA plate row by row with a volume of 100 μl per well. The 96-well ELISA plate was placed at room temperature for 5 minutes, and 2 M H2SO4 solution was added in immediately to terminate the reaction. The 96-well ELISA plate was placed in flexstation 3 (Molecular Devices), the values of OD450 were read, and the data were collected, calculated and analyzed. Results were expressed relative to the affinity of control antibody 1.
row,OD 450/OD450Control antibody 1,Binder
1,1.56,B4
2,0.9,B1
3,0.69,B5
4,0.16,B6
5,0.29,B7
6,0.24,B2
7,1,B8
8,2.42,B9
9,0.63,B3
10,0.23,B10
11,0.44,B11
12,0.9,B12
13,1.79,B13

# Target: T1, IL-4Rα on TF-1 cells
# Experiment: cell-based or functional assay
# Remark: another data set of the same source
Inhibitory rate on pro-proliferative effect of IL-4,Inhibitory rate on pro-proliferative effect of IL-13,Binder
0.44,0.39,B5
-0.05,0.02,B6
0.26,0.07,B14
0.86,0.7,B10
0.72,0.49,B13

# Target: T1, IL-4Rα on TF-1 cells
# Experiment: cell-based or functional assay
# Remark: another data set of the same source
Inhibitory rate on pro-proliferative effect of IL-4,Inhibitory rate on pro-proliferative effect of IL-13,Binder
0.98,0.85,B4
1.01,0.93,B1
1.02,0.94,B7
0.91,0.75,B2
1.02,0.92,B8
0.95,0.78,B9
1,0.94,B3
1,0.86,B11
1.01,0.94,B12
